The values below come from patent US7494767.

Assay [1] deals with GAL4 activation domain-Tsg101 fusion protein (wild-type human Tsg101) (yeast; human) (UniProt Q99816). The assay is described as follows: yeast 2-hybrid, β-galactosidase; p1-p6 variant with Tsg101.
In assay [2] the target is GAL4 DNA-binding domain-p1-p6 fusion protein (yeast; human immunodeficiency virus type 1 (HIV-1)) (UniProt P04386). The assay can be described thus: yeast 2-hybrid, β-galactosidase; Tsg101 variant with p1-p6.

Chain of GAL4 activation domain-Tsg101 fusion protein (wild-type human Tsg101) (yeast; human) (Q99816 whole entry, the tested form may be a part): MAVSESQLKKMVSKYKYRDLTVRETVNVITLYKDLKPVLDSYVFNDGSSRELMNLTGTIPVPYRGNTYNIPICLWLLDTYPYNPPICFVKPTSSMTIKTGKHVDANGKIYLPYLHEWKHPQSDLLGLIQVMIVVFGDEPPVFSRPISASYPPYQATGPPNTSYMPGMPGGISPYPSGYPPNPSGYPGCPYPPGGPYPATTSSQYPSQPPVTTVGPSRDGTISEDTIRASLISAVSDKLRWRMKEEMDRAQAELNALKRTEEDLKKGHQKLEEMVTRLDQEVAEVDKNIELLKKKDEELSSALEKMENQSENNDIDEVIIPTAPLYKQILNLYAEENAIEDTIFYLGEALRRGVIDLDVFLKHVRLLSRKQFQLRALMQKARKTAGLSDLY

“GAL4 DNA-binding domain-p1-p6 with the first PTAPP motif deleted and Ala for Pro7 in the second motif (from UniProt P04386 1-147; P03347 435-512)” yielded a β-galactosidase activity, % of wild-type (% of wild-type) in assay [1] of 25.
Substance “GAL4 activation domain-Tsg101 Y110W (from UniProt Q99816 1-390)” showed a p6 interaction, % of wild-type (% of wild-type) in assay [2] of 31.
Turning to “GAL4 activation domain-Tsg101 Y113V (from UniProt Q99816 1-390)”, in assay [2], the binding, % of wild-type (% of wild-type) came to 33.
“GAL4 activation domain-Tsg101 with Ala for Thr-Tyr-Asn (67-69) (from UniProt Q99816 1-390)” yielded a binding, % of the wild-type level (% of wild-type) in assay [2] of 5.
“GAL4 DNA-binding domain-p1-p6 with the first PTAPP motif deleted (from UniProt P04386 1-147; P03347 435-512)” yielded a β-galactosidase activity, % of wild-type protein binding (% of wild-type) in assay [1] of 50.
Still for that read-out and setting: for “GAL4 DNA-binding domain-p1-p6 with the second PTAPP motif deleted (from UniProt P04386 1-147; P03347 435-512)” the value was 25.
In assay [1], “GAL4 DNA-binding domain-p1-p6 with the (LXX)4 repeat motif deleted (from UniProt P04386 1-147; P03347 435-512)” returned a β-galactosidase activity, % of the wild-type level (% of wild-type) of 55.
